Measurements: article PMC10491789

Biological target: GPI-T (wild-type human GPI transamidase complex, purified by the same strategy as GPI-T^sub) (human) (UniProt O43292)
Assay: tandem affinity co-purification; co-expressed in HEK293T-derived knockout cells; solubilised with 1% LMNG/0.1% CHS, exchanged to digitonin; Strep-Tactin beads (Strep tag on PIGU) then Ni-NTA (His tag on (pro)ULBP2); 4 °C; 150 mM NaCl, Tris-HCl pH 8.0

Substance: ULBP2 (His-tagged GPI-anchored product, co-expressed with wild-type GPI-T) (from UniProt Q9BZM5 27-217) (natural protein)
- yield during the second affinity chromatography step: 4%
